Data: article PMC10349104, “Engineering broad-spectrum inhibitors of inflammatory chemokines from subclass A3 tick evasins” (Nature Communications, 2023)
Where “and” joins values, the source holds several entries; their conditions need not be identical. Equal entries are not always repeated.

T1: EVA-AAM1001, C-terminally Avi-tagged and biotinylated (A. americanum, biotin on the AVI tag)
T1 chain: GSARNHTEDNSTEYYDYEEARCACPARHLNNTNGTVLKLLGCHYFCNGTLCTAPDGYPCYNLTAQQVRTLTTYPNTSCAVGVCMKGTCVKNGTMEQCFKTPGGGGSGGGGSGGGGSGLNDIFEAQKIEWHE

T2: EVA-4 (UniProt P0C8E9 24-127)
T2 sequence (looked up): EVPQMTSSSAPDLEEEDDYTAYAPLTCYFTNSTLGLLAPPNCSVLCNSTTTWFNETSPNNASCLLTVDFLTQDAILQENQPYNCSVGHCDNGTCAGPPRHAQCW

B1: CCL7(Y13A) (ligand)
chain: not shown
notes: source: E. coli Rosetta-gami 2 (DE3), purified (His-Trap, SEC, RP-HPLC)
B2: CCL11(F11A) (ligand)
chain: not shown
notes: also called CC + 1 residue-mutated CCL11; source: E. coli Rosetta-gami 2 (DE3), purified (His-Trap, SEC, RP-HPLC)
B3: CCL3 (ligand, human, UniProt P10147 24-92, looked up)
chain: SLAADTPTACCFSYTSRQIPQNFIADYFETSSQCSKPGVIFLTKRSRQVCADPSEEWVQKYVSDLELSA
B4: CCL7 (ligand)
chain: not shown
notes: as for B1
B5: CCL8 (ligand, human, UniProt P80075 24-99, looked up)
chain: QPDSVSIPITCCFNVINRKIPIQRLESYTRITNIQCPKEAVIFKTKRGKEVCADPKERWVRDSMKHLDQIFQNLKP
B6: CCL18 (ligand, human, UniProt P55774 21-89, looked up)
chain: AQVGTNKELCCLVYTSWQIPQKFIVDYSETSPQCPKPGVILLTKRGRQICADPNKKWVQKYISDLKLNA
B7: CCL26 (ligand, human, UniProt Q9Y258 24-94, looked up)
chain: TRGSDISKTCCFQYSHKPLPWTWVRSYEFTSNSCSQRAVIFTTKRGKKVCTHPRKKWVQKYISLLKTPKQL
B8: CCL22 (ligand, human, UniProt O00626 25-93, looked up)
chain: GPYGANMEDSVCCRDYVRYRLPLRVVKHFYWTSDSCPRPGVVLLTFRDKEICADPRVPWVKMILNKLSQ
B9: CCL24 (ligand, human, UniProt O00175 27-119, looked up)
chain: VVIPSPCCMFFVSKRIPENRVVSYQLSSRSTCLKAGVIFTTKKGQQFCGDPKQEWVQRYMKNLDAKQKKASPRARAVAVKGPVQRYPGNQTTC
B10: CCL1 (ligand, human, UniProt P22362 24-96, looked up)
chain: KSMQVPFSRCCFSFAEQEIPLRAILCYRNTSSICSNEGLIFKLKRGKEACALDTVGWVQRHRKMLRHCPSKRK
B11: CCL17 (ligand, human, UniProt Q92583 24-94, looked up)
chain: ARGTNVGRECCLEYFKGAIPLRKLKTWYQTSEDCSRDAIVFVTVQGRAICSDPNNKRVKNAVKYLQSLERS
notes: as for B1
B12: CCL11 (ligand)
chain: not shown
notes: as for B1
B13: CCL5 (ligand, human, UniProt P13501 24-91, looked up)
chain: SPYSSDTTPCCFAYIARPLPRAHIKEYFYTSGKCSNPAVVFVTRKNRQVCANPEKKWVREYINSLEMS

Target: T1, EVA-AAM1001, C-terminally Avi-tagged …
Test: SPR
Settings: both partners purified

| Binder | fold increase in affinity over wild type CCL7 [fold] | fold increase in affinity over wild type CCL11 [fold] |
| --- | --- | --- |
| B1 | ~10000 |  |
| B2 |  | ~200 |

The binders below were run against T2, EVA-4 (assay: not stated; Kd of EVA-4 for human chemokines, three readings (source data of Supplementary Fig. 7); method and conditions not told for EVA-4). Settings: not given.

| Binder | Kd |
| --- | --- |
| B3 | 0.175 nM and 0.285 nM and 0.27 nM |
| B4 | 0.651 nM and 0.847 nM and 0.833 nM |
| B5 | 0.259 nM and 0.49 nM and 0.489 nM |
| B6 | 0.346 nM and 0.451 nM and 0.45 nM |
| B7 | 56.5 nM and 69.6 nM and 86.6 nM |
| B8 | 8.49 nM and 8.53 nM and 8.35 nM |
| B9 | 53.8 nM and 54.2 nM and 56.7 nM |
| B10 | 449 nM and 342 nM and 338 nM |
| B11 | 282 nM and 283 nM and 285 nM |
| B12 | 14.1 nM and 23.5 nM and 22.7 nM |
| B13 | 6.07 nM and 5.93 nM and 6.16 nM |
